Experimental data published in US20260242478A1 (published 2026).
Where no end group is shown, it is not given here.

Experiments:
PSMA Fab (006 PSMA Fab) [1] = molecular target: T1, PSMA Fab (006 PSMA Fab) (Fab biotinylated for capture on neutravidin plates (site not stated)); test: phage ELISA: clonal phage supernatant on biotinylated PSMA Fab captured on neutravidin plate, wells pre-incubated with PSMA antigen as competitor, anti-M13-HRP detection
T1 construct: also called Anti-PSMA Fab; anti-PSMA Fab

PSMA Fab (006 PSMA Fab) [2] = molecular target: T1, PSMA Fab (006 PSMA Fab); test: phage ELISA: clonal phage supernatant on biotinylated PSMA Fab captured on neutravidin plate, blocking buffer alone, anti-M13-HRP detection
Procedure: (§1) Clonal phage were harvested as crude supernatants and screened via standard ELISAs. […] Prior to the addition of clonal phage. wells were incubated with blocking buffer and PSMA antigen or blocking buffer alone. Without washing or aspirating, clonal phage supernatants were then added to the wells and incubated for a short time. Wells were then washed followed by detection of bound phage using a horse radish conjugated anti-M13 antibody.

006 PSMA Fab [3] = molecular target: T2, 006 PSMA Fab; test: clonal phage ELISA on biotinylated PSMA Fab captured on neutravidin plates, anti-M13 HRP detection;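 note: crude clonal phage supernatants tested, before phage were added, wells were pretreated with PSMA antigen in blocking buffer or with blocking buffer only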
T2 construct: In the panning ELISA the PSMA Fab was biotinylated and captured on neutravidin coated plates; also called Anti-PSMA Fab; anti-PSMA Fab
Procedure: as §1

006 PSMA Fab [4] = molecular target: T2, 006 PSMA Fab; test: clonal phage ELISA on captured PSMA Fab pre-incubated with PSMA antigen as competitor, anti-M13 HRP detection;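 note: crude clonal phage supernatants tested by ELISA, wells first treated with blocking buffer plus PSMA antigen, bound phage read out via HRP-linked anti-M13 antibody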
Procedure: as §1

006 PSMA Fab [5] = molecular target: T3, 006 PSMA Fab (biotinylated (site not stated)); test: clonal phage ELISA, biotinylated PSMA Fab on neutravidin plate, anti-M13 HRP detection; competitor PSMA antigen
T3 construct: Biotinylated PSMA Fab captured on neutravidin coated plates in the clonal phage ELISA; also called Anti-PSMA Fab; anti-PSMA Fab

006 PSMA Fab [6] = molecular target: T3, 006 PSMA Fab; test: clonal phage ELISA, biotinylated PSMA Fab on neutravidin plate, anti-M13 HRP detection, no PSMA antigen
Procedure: as §1

B1: Phage-3086 (peptide-180 library clone) (peptide)
peptide: FWAQCVPPWMCSGF
Phage binding ELISA signal, Anti-PSMA Fab in presence of PSMA (PSMA Fab (006 PSMA Fab) [1]): 0.199 | Phage binding ELISA signal, Anti-PSMA Fab (PSMA Fab (006 PSMA Fab) [2]): 2.1

B2: Phage-3098 (peptide)
peptide: EHILCRPVWMCEGF
Phage binding ELISA signal, Anti-PSMA Fab (006 PSMA Fab [3]): 2.09 | Phage binding ELISA signal, Anti-PSMA Fab in the presence of PSMA antigen (006 PSMA Fab [4]): 0.101

B3: Phage-3092 (peptide)
peptide: TGAICVPEWMCMGF
Phage binding ELISA signal, Anti-PSMA Fab (006 PSMA Fab [3]): 2.1 | Phage binding ELISA signal, Anti-PSMA Fab in the presence of PSMA antigen (006 PSMA Fab [4]): 0.0934

B4: Phage-3124 (peptide)
peptide: SMHWCEPMWMCAGF
modifications: cysteine pairing not given here; also: fused to phage pIII, orientation and linker not given here
phage binding ELISA signal with PSMA antigen present (006 PSMA Fab [5]): 0.0809 | phage binding ELISA signal (006 PSMA Fab [6]): 2.07

B5: Phage-3093 (peptide)
peptide: VEPYCKPAWMCTGF
Phage binding ELISA signal, Anti-PSMA Fab (006 PSMA Fab [3]): 2.1 | Phage binding ELISA signal, Anti-PSMA Fab in the presence of PSMA antigen (006 PSMA Fab [4]): 0.11

B6: Phage-3090 (peptide)
peptide: VSIMCTPLWMCEGF
Phage binding ELISA signal, Anti-PSMA Fab (006 PSMA Fab [3]): 2.1 | Phage binding ELISA signal, Anti-PSMA Fab in the presence of PSMA antigen (006 PSMA Fab [4]): 0.0782

B7: Phage-3117 (peptide)
peptide: SGALCVPLWMCTGF
phage binding ELISA signal with PSMA antigen present (006 PSMA Fab [5]): 0.0979 | phage binding ELISA signal (006 PSMA Fab [6]): 2.07

B8: Phage-3085 (peptide-180 library clone) (peptide)
peptide: LEHMCRPSWMCTGF
Phage binding ELISA signal, Anti-PSMA Fab in presence of PSMA (PSMA Fab (006 PSMA Fab) [1]): 0.0798 | Phage binding ELISA signal, Anti-PSMA Fab (PSMA Fab (006 PSMA Fab) [2]): 2.1

B9: Phage-3100 (peptide)
peptide: PMPVCVPMWMCYGF
Phage binding ELISA signal, Anti-PSMA Fab (006 PSMA Fab [3]): 2.09 | Phage binding ELISA signal, Anti-PSMA Fab in the presence of PSMA antigen (006 PSMA Fab [4]): 0.0842

B10: Phage-3126 (peptide)
peptide: FEILCRPLWMCSGF
modifications: cysteine pairing not given here; also: fused to phage pIII, orientation and linker not given here
phage binding ELISA signal with PSMA antigen present (006 PSMA Fab [5]): 0.111 | phage binding ELISA signal (006 PSMA Fab [6]): 2.06

B11: Phage-3120 (peptide)
peptide: NEPWCVPAWMCTGF
phage binding ELISA signal with PSMA antigen present (006 PSMA Fab [5]): 0.0834 | phage binding ELISA signal (006 PSMA Fab [6]): 2.07

B12: Phage-3099 (peptide)
peptide: MGPVCKPAWMCLEF
Phage binding ELISA signal, Anti-PSMA Fab (006 PSMA Fab [3]): 2.09 | Phage binding ELISA signal, Anti-PSMA Fab in the presence of PSMA antigen (006 PSMA Fab [4]): 0.109

B13: Phage-3089 (peptide)
peptide: TDQLCKPLWMCTGF
Phage binding ELISA signal, Anti-PSMA Fab (006 PSMA Fab [3]): 2.1 | Phage binding ELISA signal, Anti-PSMA Fab in the presence of PSMA antigen (006 PSMA Fab [4]): 0.0815

B14: Phage-3101 (peptide)
peptide: ILPQCVPAWMCSGF
Phage binding ELISA signal, Anti-PSMA Fab (006 PSMA Fab [3]): 2.09 | Phage binding ELISA signal, Anti-PSMA Fab in the presence of PSMA antigen (006 PSMA Fab [4]): 0.0784

B15: Phage-3119 (peptide)
peptide: DYHYCEPAWMCFGF
phage binding ELISA signal with PSMA antigen present (006 PSMA Fab [5]): 0.0726 | phage binding ELISA signal (006 PSMA Fab [6]): 2.07

B16: Phage-3082 (peptide-180 library clone) (peptide)
peptide: DGPLCVPQWMCLWL
Phage binding ELISA signal, Anti-PSMA Fab in presence of PSMA (PSMA Fab (006 PSMA Fab) [1]): 0.0699 | Phage binding ELISA signal, Anti-PSMA Fab (PSMA Fab (006 PSMA Fab) [2]): 2.11

B17: Phage-3081 (peptide-180 library clone) (peptide)
peptide: TDHLCVPSWMCLGF
Phage binding ELISA signal, Anti-PSMA Fab in presence of PSMA (PSMA Fab (006 PSMA Fab) [1]): 0.0801 | Phage binding ELISA signal, Anti-PSMA Fab (PSMA Fab (006 PSMA Fab) [2]): 2.11

B18: Phage-3121 (peptide)
peptide: APVFCKPAWMCPWL
phage binding ELISA signal with PSMA antigen present (006 PSMA Fab [5]): 0.0695 | phage binding ELISA signal (006 PSMA Fab [6]): 2.07

B19: Phage-3094 (peptide)
peptide: GAMVCKPAWMCQGF
Phage binding ELISA signal, Anti-PSMA Fab (006 PSMA Fab [3]): 2.1 | Phage binding ELISA signal, Anti-PSMA Fab in the presence of PSMA antigen (006 PSMA Fab [4]): 0.0731

B20: Phage-3125 (peptide)
peptide: VNVKCVPSWMCSGF
modifications: cysteine pairing not given here; also: fused to phage pIII, orientation and linker not given here
phage binding ELISA signal with PSMA antigen present (006 PSMA Fab [5]): 0.0739 | phage binding ELISA signal (006 PSMA Fab [6]): 2.07

B21: Phage-3084 (peptide-180 library clone) (peptide)
peptide: LDAMCRPLWMCSGF
Phage binding ELISA signal, Anti-PSMA Fab in presence of PSMA (PSMA Fab (006 PSMA Fab) [1]): 0.0799 | Phage binding ELISA signal, Anti-PSMA Fab (PSMA Fab (006 PSMA Fab) [2]): 2.11

B22: Phage-3083 (peptide-180 library clone) (peptide)
peptide: GQNLCIPSWMCEGF
Phage binding ELISA signal, Anti-PSMA Fab in presence of PSMA (PSMA Fab (006 PSMA Fab) [1]): 0.08 | Phage binding ELISA signal, Anti-PSMA Fab (PSMA Fab (006 PSMA Fab) [2]): 2.11

B23: Phage-3118 (peptide)
peptide: LESMCIPPWMCSGL
phage binding ELISA signal with PSMA antigen present (006 PSMA Fab [5]): 0.109 | phage binding ELISA signal (006 PSMA Fab [6]): 2.07

B24: Phage-3116 (peptide)
peptide: FHIMCQPEWMCLGF
phage binding ELISA signal with PSMA antigen present (006 PSMA Fab [5]): 0.129 | phage binding ELISA signal (006 PSMA Fab [6]): 2.08

B25: Phage-3088 (peptide)
peptide: VVPRCEPMWMCQGF
Phage binding ELISA signal, Anti-PSMA Fab (006 PSMA Fab [3]): 2.1 | Phage binding ELISA signal, Anti-PSMA Fab in the presence of PSMA antigen (006 PSMA Fab [4]): 0.0982

B26: Phage-3123 (peptide)
peptide: GYPLCIPEWMCAGF
modifications: cysteine pairing not given here; also: fused to phage pIII, orientation and linker not given here
phage binding ELISA signal with PSMA antigen present (006 PSMA Fab [5]): 0.0968 | phage binding ELISA signal (006 PSMA Fab [6]): 2.07

B27: Phage-3095 (peptide)
peptide: YDFRCIPSWMCMGI
Phage binding ELISA signal, Anti-PSMA Fab (006 PSMA Fab [3]): 2.1 | Phage binding ELISA signal, Anti-PSMA Fab in the presence of PSMA antigen (006 PSMA Fab [4]): 0.0693

B28: Phage-3115 (peptide)
peptide: EFPLCVPAWMCSGF
phage binding ELISA signal with PSMA antigen present (006 PSMA Fab [5]): 0.0859 | phage binding ELISA signal (006 PSMA Fab [6]): 2.08

B29: Phage-3096 (peptide)
peptide: QGRVCEPSWMCTGF
Phage binding ELISA signal, Anti-PSMA Fab (006 PSMA Fab [3]): 2.09 | Phage binding ELISA signal, Anti-PSMA Fab in the presence of PSMA antigen (006 PSMA Fab [4]): 0.0561

B30: Phage-3122 (peptide)
peptide: GMIQCRPAWMCAGL
modifications: cysteine pairing not given here; also: fused to phage pIII, orientation and linker not given here
phage binding ELISA signal with PSMA antigen present (006 PSMA Fab [5]): 0.0928 | phage binding ELISA signal (006 PSMA Fab [6]): 2.07

B31: Phage-3097 (peptide)
peptide: MERMCRPAWMCTAF
Phage binding ELISA signal, Anti-PSMA Fab (006 PSMA Fab [3]): 2.09 | Phage binding ELISA signal, Anti-PSMA Fab in the presence of PSMA antigen (006 PSMA Fab [4]): 0.107

B32: Phage-3091 (peptide)
peptide: TELACKPLWMCNGF
Phage binding ELISA signal, Anti-PSMA Fab (006 PSMA Fab [3]): 2.1 | Phage binding ELISA signal, Anti-PSMA Fab in the presence of PSMA antigen (006 PSMA Fab [4]): 0.0691

B33: Phage-3087 (peptide-180 library clone) (peptide)
peptide: VDLICRPAWMCSGF
Phage binding ELISA signal, Anti-PSMA Fab in presence of PSMA (PSMA Fab (006 PSMA Fab) [1]): 0.0726 | Phage binding ELISA signal, Anti-PSMA Fab (PSMA Fab (006 PSMA Fab) [2]): 2.1
